According to patent publication US20160053025A1 (SAMSUNG ELECTRONICS, published 2016):
One block for each binder: values may come before it.

B3: FLAG-tagged hAng-2 (ligand)
chain: YNNFRKSMDSIGKKQYQVQHGSCSYTFLLPEMDNCRSSSSPYVSNAVQRDAPLEYDDSVQRLQVLENIMENNTQWLMKLENYIQDNMKKEMVEIQQNAVQNQTAVMIEIGTNLLNQTAEQTRKLTDVEAQVLNQTTRLELQLLEHSLSTNKLEKQILDQTSEINKLQDKNSFLEKKVLAMEDKHIIQLQSIKEEKDQLQVLVSKQNSIIEELEKKIVTATVNNSVLQKQQHDLMETVNNLLTMMSTSNSAKDPTVAKEEQISFRDCAEVFKSGHTTNGIYTLTFPNSTEEIKAYCDMEAGGGGWTIIQRREDGSVDFQRTWKEYKVGFGNPSGEYWLGNEFVSQLTNQQRYVLKIHLKDWEGNEAYSLYEHFYLSSEELNYRIHLKGLTGTAGKISSISQPGNDFSTKDGDNDKCICKCSQMLTGGWWFDACGPSNLNGMYYPQRQNTNKFNGIKWYYWKGSGYSLKATTMMIRPADF
notes: not shown: FLAG tag

Legend:
[1] = molecular target: T1, c-Met-Fc (#358-MT/CF, R&D Systems) (human, UniProt P08581 25-932); assay: SPR, Biacore T100; bispecific antibody captured by human Fab binder on CM5, c-Met-Fc as analyte
T1 construct: also called human c-Met/Fc fusion protein (R&D Systems); human c-Met/Fc protein; not shown: Fc part
T1 sequence (P08581 25-932 limits assumed): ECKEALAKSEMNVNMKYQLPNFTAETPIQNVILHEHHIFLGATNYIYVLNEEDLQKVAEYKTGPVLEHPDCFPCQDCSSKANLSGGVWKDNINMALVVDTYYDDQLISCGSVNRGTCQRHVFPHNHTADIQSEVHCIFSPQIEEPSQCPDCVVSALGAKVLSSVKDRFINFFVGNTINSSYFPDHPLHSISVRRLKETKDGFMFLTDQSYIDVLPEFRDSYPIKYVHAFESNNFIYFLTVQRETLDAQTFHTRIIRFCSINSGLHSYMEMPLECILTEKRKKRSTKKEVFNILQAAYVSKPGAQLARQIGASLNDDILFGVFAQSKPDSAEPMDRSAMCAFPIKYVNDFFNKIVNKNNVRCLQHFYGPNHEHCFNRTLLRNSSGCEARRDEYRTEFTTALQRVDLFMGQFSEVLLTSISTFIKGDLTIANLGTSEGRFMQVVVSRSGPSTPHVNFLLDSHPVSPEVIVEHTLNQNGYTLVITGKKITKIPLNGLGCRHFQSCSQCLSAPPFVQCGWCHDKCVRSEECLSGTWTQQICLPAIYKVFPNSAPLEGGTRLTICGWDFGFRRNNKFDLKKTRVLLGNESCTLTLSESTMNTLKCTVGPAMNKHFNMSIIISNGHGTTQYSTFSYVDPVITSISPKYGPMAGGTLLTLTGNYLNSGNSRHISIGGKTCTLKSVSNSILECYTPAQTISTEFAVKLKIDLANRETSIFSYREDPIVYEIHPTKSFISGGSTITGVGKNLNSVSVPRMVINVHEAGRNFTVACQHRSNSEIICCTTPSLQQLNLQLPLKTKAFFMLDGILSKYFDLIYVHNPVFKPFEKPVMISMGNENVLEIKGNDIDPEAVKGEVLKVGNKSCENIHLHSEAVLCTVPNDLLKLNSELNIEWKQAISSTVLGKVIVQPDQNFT
Method: The binding affinity of the anti-c-Met/anti-Ang2 bispecific antibody prepared in Example 1 to c-Met was measured using Biacore T100(GE). For this, a human Fab binder (#28-9583-25, GE Healthcare) was fixed on the surface of CM5 chip (#BR-1005-30, GE) according to manufacturer's manual. About 90˜120 RU of the anti-c-Met/anti-Ang2 bispecific antibody was captured and then, c-Met-Fc (#358-MT/CF, R&D Systems) was added to the captured antibody at various concentrations. Hereto, 10 mM Glycine-HCl (pH 1.5) solution was added, to regenerate the surface. To measure the affinity, the above obtained data were fitted using BIAevaluation software (GE Healthcare, Biacore T100 evaluation software).

[2] = molecular target: T2, recombinant hAng-2 (C-His, R&D Systems) (human, UniProt O15123 19-496); assay: SPR, Biacore T100; C-terminal His-tagged human Ang2 captured by anti-histidine antibody on CM5, MA01 as analyte
T2 construct: Bought protein; also called human Ang-2 protein; C-terminal histidine-tagged human Ang2 (R&D Systems); not shown: C-terminal His tag
T2 sequence: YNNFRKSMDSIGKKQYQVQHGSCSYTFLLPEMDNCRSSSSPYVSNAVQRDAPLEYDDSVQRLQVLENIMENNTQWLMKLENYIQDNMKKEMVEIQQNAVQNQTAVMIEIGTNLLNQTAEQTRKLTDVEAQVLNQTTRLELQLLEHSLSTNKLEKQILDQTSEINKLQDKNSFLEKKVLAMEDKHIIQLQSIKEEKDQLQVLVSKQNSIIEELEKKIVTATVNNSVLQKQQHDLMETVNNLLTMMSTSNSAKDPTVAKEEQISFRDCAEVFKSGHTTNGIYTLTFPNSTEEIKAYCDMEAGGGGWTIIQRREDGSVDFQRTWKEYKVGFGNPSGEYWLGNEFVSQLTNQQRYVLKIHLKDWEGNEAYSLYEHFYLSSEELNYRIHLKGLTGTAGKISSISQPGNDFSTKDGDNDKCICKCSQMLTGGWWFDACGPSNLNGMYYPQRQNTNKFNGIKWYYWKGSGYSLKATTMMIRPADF
Method: The binding affinity of the anti-c-Met/anti-Ang2 bispecific antibody prepared in Example 1 to Ang2 was measured using Biacore T100(GE). For this, an anti-histidine antibody (R&D Systems) was fixed on the surface of CM5 chip (#BR-1005-30, GE) according to manufacturer's manual. C-terminal histidine-tagged human Ang2 (R&D Systems) was captured and then, anti-c-Met/anti-Ang2 bispecific antibody MA01 was added to the captured antigen (Ang2) at various concentrations. Hereto, 10 mM Glycine-HCl (pH 1.5) solution was added, to regenerate the surface. To measure the affinity, the above obtained data were fitted using BIAevaluation software (GE Healthcare, Biacore T100 evaluation software).

FLAG-tagged hAng-2 = molecular target: B3; assay: Ang2-Tie2 competition ELISA: plate coated with hTie2-Fc, 400 ng/ml FLAG-tagged hAng-2 with antibody at varied concentration, detection with anti-FLAG-HRP; blocked ligand/receptor: hTie2-Fc
Method: More specifically, MaxiSorp™ flat-bottom plate (Nunc) of 96-well was coated with hTie2-Fc (R&D Systems) which is a protein bound with 4 μg/ml of Fc of human IgG1. After that, the plate was washed five times with 0.05% (v/v) Tween-20-containing PBS (phosphate buffer saline) and then blocked with 1% (v/v) BSA (bovine serum albumin; Sigma)-containing PBS at a room temperature for 2 hour.
For Ang2:Tie2 competition ELISA, each anti-Ang2 antibody obtained in Example 2 was placed at various concentrations of 400 nM-0.001 nM into each well coated with the hTie-2/Fc fusion protein along with 1% (v/v) BSA and 400 ng/ml of a FLAG-tagged hAng-2 and then, the plate was allowed to react at a room temperature for 2 hours and washed five times with PBST. After that, an anti-FLAG antibody (Sigma) conjugated with HRP diluted in 1% (v/v) BSA-containing PBS at a ratio of 1:5,000 (v/v) was added in an amount of 100 μl to each well to react at a room temperature for 1 hour and then, the plate was washed five times with PBST. Lastly, 100 μl of TMB substrate (Cell Signaling) was added to each well of the plate to induce color development for 3 min. and then, the reaction was ceased by the addition of 100 μl of Stop solution (Cell Signaling) and OD450 values were measured on a plate reader (Molecular Devices). […]

BSA = molecular target: T3, BSA (Bos taurus, UniProt P02769); assay: Complex ELISA: plate coated with BSA, FLAG-Ang2 0.25 ug/ml shown by 10D6 2 ug/ml and anti-mouse IgG-HRP, OD450
T3 construct: commercial preparation; also called Bovine serum albumin; Sigma
T3 sequence (P02769 25-607 limits assumed): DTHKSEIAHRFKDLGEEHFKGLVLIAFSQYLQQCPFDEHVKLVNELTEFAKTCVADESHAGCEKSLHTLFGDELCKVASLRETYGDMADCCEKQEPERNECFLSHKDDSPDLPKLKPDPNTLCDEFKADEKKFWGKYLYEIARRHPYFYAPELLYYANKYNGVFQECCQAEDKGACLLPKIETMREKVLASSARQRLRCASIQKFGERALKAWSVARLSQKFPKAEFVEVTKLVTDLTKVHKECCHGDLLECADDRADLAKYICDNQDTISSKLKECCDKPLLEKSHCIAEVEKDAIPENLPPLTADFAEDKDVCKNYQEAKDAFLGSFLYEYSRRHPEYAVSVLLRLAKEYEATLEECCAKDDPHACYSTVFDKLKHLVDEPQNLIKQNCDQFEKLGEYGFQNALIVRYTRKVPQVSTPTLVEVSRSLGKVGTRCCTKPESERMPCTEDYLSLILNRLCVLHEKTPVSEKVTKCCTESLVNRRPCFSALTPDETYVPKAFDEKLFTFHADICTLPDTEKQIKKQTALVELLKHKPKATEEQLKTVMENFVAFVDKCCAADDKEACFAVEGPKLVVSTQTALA
Method: (§1) A 96-well MaxiSorp™ flat-bottom plate (Nunc) was coated with 4 μg/ml of Tie2-Fc (R&D systems) or BSA (Sigma). Then, the plate was washed five times with 0.05% (v/v) Tween-20-containing PBS (Phosphate Buffer Saline) and blocked with 1% (v/v) BSA (Bovine serum albumin; Sigma)-containing PBS at a room temperature for 2 hours. 0.25 μg/ml of Ang2 and 2 μg/ml of 10D6 antibody were added to each well of the plate, which was allowed to react at a room temperature for 2 hours and then washed five times with PBST. After that, an anti-mouse IgG antibody (Sigma) conjugated with HRP diluted in 1% (v/v) BSA-containing PBS at a ratio of 1:5,000 (v/v) was added in an amount of 100 ul to each well to react at a room temperature for 1 hour and then, the plate was washed five times with PBST. Lastly, 100 ul (microliter) of TMB substrate (Cell Signaling) was added to each well of the plate to induce color development for 3 min. and then, the reaction was ceased by the addition of 100 ul of Stop solution (Cell Signaling) and OD450 values were measured on a plate reader (Molecular Devices).

hTie2-Fc (R&D Systems) = molecular target: T4, hTie2-Fc (R&D Systems) (human, UniProt Q02763 23-745); assay: ELISA, Tie2-Fc coated, Ang2 and 10D6 added, detected with anti-mouse IgG-HRP
T4 construct: Bought fusion protein; also called hTie-2/Fc fusion protein; not shown: Fc of human IgG1
T4 sequence (Q02763 23-745 limits assumed): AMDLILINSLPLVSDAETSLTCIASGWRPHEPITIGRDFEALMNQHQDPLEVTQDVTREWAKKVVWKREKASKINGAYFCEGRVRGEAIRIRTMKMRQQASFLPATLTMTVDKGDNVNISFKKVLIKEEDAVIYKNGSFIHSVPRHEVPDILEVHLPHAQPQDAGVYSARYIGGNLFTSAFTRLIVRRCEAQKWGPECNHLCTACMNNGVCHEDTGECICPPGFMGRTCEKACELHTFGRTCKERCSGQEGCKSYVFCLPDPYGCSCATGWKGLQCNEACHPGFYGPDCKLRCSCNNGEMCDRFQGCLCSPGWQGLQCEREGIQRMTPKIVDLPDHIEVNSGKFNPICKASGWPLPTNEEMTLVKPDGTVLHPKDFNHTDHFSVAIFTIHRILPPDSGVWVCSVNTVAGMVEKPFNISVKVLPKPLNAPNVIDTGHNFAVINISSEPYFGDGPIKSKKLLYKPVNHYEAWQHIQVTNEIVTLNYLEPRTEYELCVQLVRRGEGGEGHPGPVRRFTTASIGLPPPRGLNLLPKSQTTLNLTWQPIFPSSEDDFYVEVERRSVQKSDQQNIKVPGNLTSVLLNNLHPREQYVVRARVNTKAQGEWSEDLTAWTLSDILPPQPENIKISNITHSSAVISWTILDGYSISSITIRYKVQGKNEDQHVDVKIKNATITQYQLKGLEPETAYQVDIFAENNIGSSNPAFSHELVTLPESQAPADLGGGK
Method: as §1

B2: 4H10 (antibody, V domains shown)
VH: EVQLLESGGGLVQPGGSLRLSCAASGFTFSSYDMSWVRQAPGKGLEWVSLISPDSSSIYYADSVKGRFTISRDNSKNTLYLQMNSLRAEDTAVYYCAKDLISFWRGGFDYWGQGTLVTVSS
VL: QSVLTQPPSASGTPGQRVTISCSGSSSNIGSNYVNWYQQLPGTAPKLLIYADSNRPSGVPDRFSGSKSGTSASLAISGLRSEDEADYYCGSWDYSLSGYVFGGGTKLTVLG
notes: also called anti-Ang2 antibody 4H10
IC50 (read off the curve) (FLAG-tagged hAng-2): ~0.2 nM

Binder: B3
binding result (BSA): no binding (tested: 0.25 ug/ml)

Second part, the binder after the results:

Kd [1]: 0.07 nM | Kd [2]: 71.6 nM | koff [2]: 0.00648 s⁻¹ | kon [2]: 90500 M⁻¹ s⁻¹
B1: anti-c-Met/anti-Ang2 bispecific antibody MA01 (bispecific antibody, human IgG2, kappa)
heavy: EVQLVESGGGLVQPGGSLRLSCAASGFTFTDYYMSWVRQAPGKGLEWLGFIRNKANGYTTEYSASVKGRFTISRDNSKNTLYLQMNSLRAEDTAVYYCARDNWFAYWGQGTLVTVSSASTKGPSVFPLAPCSRSTSESTAALGCLVKDYFPEPVTVSWNSGALTSGVHTFPAVLQSSGLYSLSSVVTVPSSNFGTQTYTCNVDHKPSNTKVDKTVERKCCVECPPCPAPPVAGPSVFLFPPKPKDTLMISRTPEVTCVVVDVSHEDPEVQFNWYVDGVEVHNAKTKPREEQFNSTFRVVSVLTVVHQDWLNGKEYKCKVSNKGLPAPIEKTISKTKGQPREPQVYTLPPSREEMTKNQVSLTCLVKGFYPSDIAVEWESNGQPENNYKTTPPMLDSDGSFFLYSKLTVDKSRWQQGNVFSCSVMHEALHNHYTQKSLSLSPGKGGGGSGGGGSQVQLQESGPGLVKPSETLSLTCAVSGYSITSDYAWNWIRQPPGKGLEWMGKISYSGKTDYNPSLKSRSTISRDTSKNQFSLKLSSVTAADTAVYYCARGNFEGAMDYWGQGTLVTVSSGGGGSGGGGSGGGGSDIQMTQSPSSLSASVGDRVTITCKASQSVSNDVAWYQQKPGKAPKLLIYYASNRYPGVPSRFSGSGSGTDFTLTISSLQPEDFATYYCQQDYSSPWTFGGGTKLEIK
light: DIQMTQSPSSLSASVGDRVTITCKSSQSLLASGNQNNYLAWYQQKPGKAPKMLIIWASTRVSGVPSRFSGSGSGTDFTLTISSLQPEDFATYYCQQSYSRPYTFGQGTKVEIKRTVAAPSVFIFPPSDEQLKSGTASVVCLLNNFYPREAKVQWKVDNALQSGNSQESVTEQDSKDSTYSLSSTLTLSKADYEKHKVYACEVTHQGLSSPVTKSFNRGEC

binding result (hTie2-Fc (R&D Systems)): binds
B4: Ang2 protein (R&D systems) (ligand)
chain: YNNFRKSMDSIGKKQYQVQHGSCSYTFLLPEMDNCRSSSSPYVSNAVQRDAPLEYDDSVQRLQVLENIMENNTQWLMKLENYIQDNMKKEMVEIQQNAVQNQTAVMIEIGTNLLNQTAEQTRKLTDVEAQVLNQTTRLELQLLEHSLSTNKLEKQILDQTSEINKLQDKNSFLEKKVLAMEDKHIIQLQSIKEEKDQLQVLVSKQNSIIEELEKKIVTATVNNSVLQKQQHDLMETVNNLLTMMSTSNSAKDPTVAKEEQISFRDCAEVFKSGHTTNGIYTLTFPNSTEEIKAYCDMEAGGGGWTIIQRREDGSVDFQRTWKEYKVGFGNPSGEYWLGNEFVSQLTNQQRYVLKIHLKDWEGNEAYSLYEHFYLSSEELNYRIHLKGLTGTAGKISSISQPGNDFSTKDGDNDKCICKCSQMLTGGWWFDACGPSNLNGMYYPQRQNTNKFNGIKWYYWKGSGYSLKATTMMIRPADF
notes: Ang2 as used in the hybridoma screen, the HUVEC assays and the complex ELISA; also called human Ang2 protein; Human Ang-2 protein
